# Laboratory results taken from the RNAGym collection of RNA variant scans (doi:10.7554/elife.80360).
# B1: HDV Ribozyme (parent)
# chain: GGCCGGCAUGGUCCCAGCCUCCUCGCUGGCGCCGGCUGGGCAACAUUCCGAGGGGACCGUCCCCUCGGUAAUGGCGAAUGGGACCCA
# Variants of: B1
# Assay: self-cleavage, relative activity (ratio to wild type); higher = more cleavage; co-transcriptional
row,Variant,self-cleavage
1,GGCCGGCAUGGUCCCAGCCUCCUCGCUGGCGCCGCCUGGCCAACAUUCCGAGGGGACCGUCCCCUCGGUAAUGGCGAAUGGGACCCA [G35C G40C],0.185
2,GGCCGGCAUGGUCCCAGCCUCCUCGCUGGCGCCGCCUGGGCAACAUUCCGAGGGGACCGUCCCCUCGGUAAUGACGAAUGGGACCCA [G35C G74A],0.0779
3,GGCCGGCAUGGUCCCAGCCUCCUCGCUGGCGCCGCCUGGGCAACAUUCCGAGGGGACCGUCCCCUCGGUAAUGGCAAAUGGGACCCA [G35C G76A],0.514
4,GGCCGGCAUGGUCCCAGCCUCCUCGCUGGCGCCGCCUGGGCAACAUUCCGAGGGGACCGUCCCCUCGGUAAUGGCCAAUGGGACCCA [G35C G76C],0.305
5,GGCCGGCAUGGUCCCAGCCUCCUCGCUGGCGCCGCCUGGGCAACAUUCCGAGGGGACCGUCCCCUCGGUAAUGGCGAAUGGGACCUA [G35C C86U],0.415
6,GGCCGGCAUGGUCCCAGCCUCCUCGCUGGCGCCGCCUGAGCAACAUUCCGAGGGGACCGUCCCCUCGGUAAUGGCGAAUGGGACCCA [G35C G39A],0.178
7,GGCCGGCAUGGUCCCAGCCUCCUCGCUGGCGCCGCCUGGGCAACAUUCCGAGGGGACCGUCACCUCGGUAAUGGCGAAUGGGACCCA [G35C C62A],0.277
8,GGCCGGCAUGGUCCCAGCCUCCUCGCUGGCGCCGCCUGGGCAACAUUCCGAGGGGACCGUCCCCUUGGUAAUGGCGAAUGGGACCCA [G35C C66U],0.229
9,GGCCGGCAUGGUCCCAGCCUCCUCGCUGGCGCCGCCUGGGCAACAUUCCGAGGGGACCGUCCCCUAGGUAAUGGCGAAUGGGACCCA [G35C C66A],0.253
10,GGCCGGCAUGGUCCCAGCCUCCUCGCUGGCGCCGCCUGGGCAACAUUCCAAGGGGACCGUCCCCUCGGUAAUGGCGAAUGGGACCCA [G35C G50A],0.0528
11,GGCCGGCAUGGUCCCAGCCUCCUCGCUGGCGCCGCCUGGGCAACAUUCCUAGGGGACCGUCCCCUCGGUAAUGGCGAAUGGGACCCA [G35C G50U],0.272
12,GGCCGGCAUGGUCCCAGCCUCCUCGCUGGCGCCGCCUGGGCAACAUUCCGAGGGGACCGUCCCCUCGGUAAUGGCGAAUGGGAUCCA [G35C C84U],0.256
13,GGCCGGCAUGGUCCCAGCCUCCUCGCUGGCGCCGCCUGGGCAACAUUCCGAGGGCACCGUCCCCUCGGUAAUGGCGAAUGGGACCCA [G35C G55C],0.366
14,GGCCGGCAUGGUCCCAGCCUCCUCGCUGGCGCCGCCUGGGCAACAUUCCGAGGGAACCGUCCCCUCGGUAAUGGCGAAUGGGACCCA [G35C G55A],0.342
15,GGCCGGCAUGGUCCCAGCCUCCUCGCUGGCGCCGCCUGGGCAACAUUCCGAGGGUACCGUCCCCUCGGUAAUGGCGAAUGGGACCCA [G35C G55U],0.0615
16,GGCCGGCAUGGUCCCAGCCUCCUCGCUGGCGCCGCCUGGGCAACAUUCCGAGGGGACCGUCCCCUCGGUAAUGGCGAAUGGGACUCA [G35C C85U],0.308

row,Variant,self-cleavage
1,GGCCGGCAUGGUCCCAGCCUCCUCGCUGGCGCCGCCUGGGCAACAUUCCGAGGGGACCGUCCACUCGGUAAUGGCGAAUGGGACCCA [G35C C63A],0.259
2,GGCCGGCAUGGUCCCAGCCUCCUCGCUGGCGCCGCCUGGGCAACAUUCCGAGGGGACCGUCCUCUCGGUAAUGGCGAAUGGGACCCA [G35C C63U],0.492
3,GGCCGGCAUGGUCCCAGCCUCCUCGCUGGCGCCGCCUGGGCAACAUUCCGAGGGGACCCUCCCCUCGGUAAUGGCGAAUGGGACCCA [G35C G59C],0.424
4,GGCCGGCAUGGUCCCAGCCUCCUCGCUGGCGCCGCCUGGGCAACAUUCCGAGGGGACCUUCCCCUCGGUAAUGGCGAAUGGGACCCA [G35C G59U],0.204
5,GGCCGGCAUGGUCCCAGCCUCCUCGCUGGCGCCGCCUGGGCAACAUUCCGAGGGGACCGUCCCCUCGGUAAUGGUGAAUGGGACCCA [G35C C75U],0.0692
6,GGCCGGCAUGGUCCCAGCCUCCUCGCUGGCGCCGCCUGGGCAACAUUCCGAGGGGACCGUCCCCUCGCUAAUGGCGAAUGGGACCCA [G35C G68C],0.356
7,GGCCGGCAUGGUCCCAGCCUCCUCGCUGGCGCCGCCUGGGCAACAUUCCGAGGUGACCGUCCCCUCGGUAAUGGCGAAUGGGACCCA [G35C G54U],0.326
8,GGCCGGCAUGGUCCCAGCCUCCUCGCUGGCGCCGCCUGGGCAACAUUCCGAGGAGACCGUCCCCUCGGUAAUGGCGAAUGGGACCCA [G35C G54A],0.151
9,GGCCGGCAUGGUCCCAGCCUCCUCGCUGGCGCCGCCUAGGCAACAUUCCGAGGGGACCGUCCCCUCGGUAAUGGCGAAUGGGACCCA [G35C G38A],0.155
10,GGCCGGCAUGGUCCCAGCCUCCUCGCUGGCGCCGCCUCGGCAACAUUCCGAGGGGACCGUCCCCUCGGUAAUGGCGAAUGGGACCCA [G35C G38C],0.128
11,GGCCGGCAUGGUCCCAGCCUCCUCGCUGGCGCCGCCUGGGCAACAUUCCGAGGGGACCGUCCCCUCGGUAAUUGCGAAUGGGACCCA [G35C G73U],0.181
12,GGCCGGCAUGGUCCCAGCCUCCUCGCUGGCGCCGCCUGGGCAACAUUCCGAGGGGACCGUCCCCUCGGUAAUAGCGAAUGGGACCCA [G35C G73A],0.0723
13,GGCCGGCAUGGUCCCAGCCUCCUCGCUGGCGCCGCCUGGGCAACAUUCCGAGGGGACCGUCCCCUCUGUAAUGGCGAAUGGGACCCA [G35C G67U],0.133
14,GGCCGGCAUGGUCCCAGCCUCCUCGCUGGCGCCGCCUGGGCAACAUUCCGAGGGGACCGUCCCCUCCGUAAUGGCGAAUGGGACCCA [G35C G67C],0.0519
15,GGCCGGCAUGGUCCCAGCCUCCUCGCUGGCGCCGCCUGGGCAACAUUCCGAGUGGACCGUCCCCUCGGUAAUGGCGAAUGGGACCCA [G35C G53U],0.204
16,GGCCGGCAUGGUCCCAGCCUCCUCGCUGGCGCCGCCUGGGCAACAUUCCGAGGGGACCGUCCCUUCGGUAAUGGCGAAUGGGACCCA [G35C C64U],0.348
